# Measurements taken from patent US12077763B2, “RNA-based control of powdery mildew” (Greenlight Biosciences, Inc., priority 2021, dated 2024).
# Tested on: E. necator
# Assay: Leaf disc assay, dry inoculum (settling tower), decrease in disease severity / hyphal growth (Example 2)
# Details: decrease in disease severity (hyphal growth) relative to untreated control, value ± SE; for % decrease =/− SE TP2: time point 2; for % decrease =/− SE TP1: time point 1 (untreated control hyphal growth ≥50%)
Molecule,% decrease =/− SE TP2,% decrease =/− SE TP1
GS1849: dsRNA trigger SEQ ID NO 143; gene target Chitin synthase 8 (nucleic acid) TTGAGAAGCAGCCAACCATGTATTAACAACTAAGCTAGTGCTTGCATCAAGTTTATATGATTGCGTAGACGTGTAAGCAGTATGGATTGAGTTTAGGAGAGTAGTCGATGAGACTTGCGCTGGAGGTTGAGAAGTAGAATTGTTATTTCGAACACCTCCATACGCTGAAGAGGTAGTTGAATAGATAGACATCCGGTGAGTTCCAGTCATTTTATGAAGAGTGATCGAGTTTTTAGACCTTTCCACGTATGGATATTTAAGGTATGTAAATGAGTCAATTCAAAGTCACAAGATTCTCGATCAGTCGATTGATTGGCTTATTGACAATATTCTTTAGCCGAAATCTTAGACAATGGCTTGACAGAATTAATGTCTGGTCTTCGAAGTATCCAGTTGGTGTGTAGCAGATAACTTCGGTATAGTTGTAGAAATGGAAAACAAACCGCAAAAGACAGTCTTGTATCGACCGTGAGGCCGACAGTAGGAGAAATTCAATGCTATTGAGAAATTGAACAACCAAAAAGCGAAAGTAGGGTAACAAGTTTCGACTCACAGACCTA,5 ± 8%,
GS1850: dsRNA trigger SEQ ID NO 198; gene target Ubiquitin-conjugating enzyme E2-34 kDa (nucleic acid) TCGTCATCCTCGTCTTGTTCAAAATCATAGTTATCATCGTCTGAGCTCTCGCTGGTACCGAACTCATCCTGATCATCACTCTCGTTCCAGAAATCATCGTCATCATTAATTTGCGGAGGAGGCGCCTCAATTAATGTTTTTGGCATCACAAAACCCTCCGGTATATCTCTCATAGAAATTCTTACTGTCTCCAAAGCCCGCTGTTTGTAAGCCTCCAGGTTATCCCGATACATAACGCTGGCATCAACATTTGCAGGGGAGGTAATCTCAGGGTCATCTAGTAAGAGAAGAATAGAGCGGAGAACACTTTCAACACTCTGAATTGATGACCAGCGCTCACAAGCAAGCTCTCCAGATTGTTCATCATCTCCAGCAGCGTGTAGTATTGAGATGCAAACCCTGCCATCAGGATATATATTTGGATGGTAAATAGGTTGCAAGAATTTGAAGGTCGGAGGAGCATAAGGATATTTATCAGTAAAACCCATTTCAGCCTTAAAATAAGCCCCATCGAAAGCACTTTCTGGGTTGACTACTATTAGAGCGATTAACCACTTGAA,0 ± 6%,13 ± 6%
GS1852: dsRNA trigger SEQ ID NO 202; gene target PA-phosphatase related-family protein DDB_G0275547 (nucleic acid) TTCTCTTAGGGACGGTTGGCATCATTATTAATTTTGCAGAACCAATTCCATCTCGATCTTTTCCGATTTATTCTCAAAATGGAGATATTGTTTATCCTCAATTTGCATATCCTCTTCGCAAGAATATCATTCCAATTTGGGTAGCAATTTTGTTGGCTTCACTTATTCCTTTGCTCATCATTTTCCTTACACAATTTCGTATTCGCTCGTTTTGGGATGCAAACAACGCGATTACAGGGCTATTATACTCCCTTATTATCGCCGGAGTGTTTCAAGTCTTCTTAAAGTGGTTAATTGGAGGGCTGAGACCTCATTTTCTAACCGTCTGTGAGCCAATAATTCCAACACGTGCTCCAATAAAGGCTAGATATGGGCCTAGAATAATAATGTACGACAGAAATGTCTGCACTGGCGACAAAAGGCAGATCAATAATTCTCTTGAATCATTCCCTTCAAGCCAATCGACTGTAGCATTTTCTGGTTTCGTTTATTTGGCTATATACCTGAATGCAAAACTTAAAATTTGGTCTAATTACCATTCTGCCATGTGGAAGAT,,22 ± 4%
GS1853: dsRNA trigger SEQ ID NO 204; gene target Uncharacterized WD repeat-containing protein C17D11.16 (nucleic acid) CGGACTTCTTGGTCAGGCGCAAAAGAAGTTGAAAATACCTTTCCAACTTCCAAATCTCTGGACACTATCATTGAGGGGCCCGATGGCTGAATATTCCACAGTTTTACGAGTTTATCAGAAGACCCTGTGGCCATAAACCCGGGAATGATAGGATTAATATCAAAAGCACAAACTGATTTGTCATGTGCTTGCAATAACCAAACTGGCTTACTAGAACTGGGAGTAGATGGTGCCATTCGTATATCGTGATAATGGACCATACCACCTTCTGTCGTTACGTAAAAGAAATTTGGGTTGTGTGCATCCCATTTGACAGCTTCTACATCACTTTCTACACCCCAAATCGGCACTTTGGATTCTGGTGCTCTCATGTCGGCCGCTACGACACTCCGATCATAACTTCCACTAAGTAAGACAGTGGAGTCAACAGGATGCCATTGTATTGAGCAAACTTTATCTGAATGATTACTATATGATTTAGCACATTTATTAGTATTAAGGTCCCATAGTTTGACAGTCTTGTCGGCGGAAGAAGAGGCAAGTAAATTTTGGTGTT,0 ± 5%,14 ± 6%
GS1855: dsRNA trigger SEQ ID NO 212; gene target Golgi apyrase (nucleic acid) TAACACCCGCAGTTGCCATCAGAAAGAAGGGAGTATCTTTAACTTGATTCTCAGGTACAATACTCAATGCATGATCTAGTAAGCTTTGAAGATGTTCAGGACCAATATCTGTTATGCGATCGGCAAAGGAAGAGACGCCGGGTTTGATTTTTTTTGAATATCCAGGTTTAGTGTGTAACTGAGGTAGTTGGTTCAATTGAATCTCATTTTTTGCATCGTAACGAGCTCGAGATGTATTGAGCCACCGGTAGACGTGGACTCGAGTCCCTGACGAGCCCGCGTCTAAGATAACCCCCCATCGCCATTTACCCATAAGTAGCCTATCGTTACGGTTTGGCGATGCCGGTCTAGGATATGTGCTTCAATATCAAAAATAATCCGTGAAGCGTTACAAAAACATGAGTCAATTATACGGAATTTGAAACGAGTGTGAAAGGAAGTCGGCAGACTCAAAAATAAAAAAGAAAGATAATAATTCGAATTTGAATGAGAATGAGTAGTGGTCGGATAAGATGTTTAATGCTAAGTGCTAAGATAACTGACTAAGACTTGAT,10 ± 6%,26 ± 4%
GS1856: dsRNA trigger SEQ ID NO 214; gene target Zinc finger and SCAN domain-containing protein 20 (nucleic acid) GACCATTGTGGTCTTTCGACAAAATGATTTCAAACAGCCCTCGTGTGCACATTTGTATGGTCTTTTTCCTGTATGAATACGACGATGACGAGCCAGACTAGATGAATCAGAGAATCGTTTCCCACAACCAAGATGCTGGCATTGATGTGGCTTTTCGCCAGTGTGTGTTCGAATGTGCACAGTTAAGGCACTTCTTTGAATGAAACTTTTTCCACATCCAGGCTGCATGCATGAATATGGCCGTTCGTTGGTATGTATTCGATAGTGGCGTTGAAGGTCAGACTTCCTGTTGAAACTCTTGTGACATGTCTGCCAATCACACTGAAATGGTCTCGCATTAGGTTCGTTTTCAACGAGCTCCATTACATCCATAGTGAACCGACAAGTAGTGTCGAATGTATGCAATGTCGGAGAAGTTAAGGGTTGGACAAGAGGTACCGCAGCAAAAGCTGCAGGTGTGGTGATTAGGTGGGGATGGGTGTCGAATATATAAGATTGCGATTCTCTATTTAAAGAAAAAAGAAATATAAGCAAAATAAAATATTTCTTTTGA,6 ± 8%,1 ± 7%
GS1857: dsRNA trigger SEQ ID NO 129; gene target Transcriptional adapter 2 (nucleic acid) CTTGCTTGAAATTCTTCTCGTGGAATTTCTTCAAGAAGCTGAGTATCCTTGAGACTAGCTCTAACAGGTAGGGGAAACTTTGGACTATCCAGATAAACTTTCTGATAATGCGCCTTAACTTCGTCCTTGTCTCGATAACCTCCAATATGGTCTGCTATATCTGCCCATGATCCAAAGCCATATATTTCGGCTCCCTCCAAAAGAAGTAATTCTTCATCAGCACCCCAGTTTCTGTCATATATGGGAACTGAATTTTGCTCTATTACTCGGTATGGATGGGTTCCTGGGTTGTGGTTGTGTGAAGCTTCGCCATTTGAGAAGCATAGCACACAAAGATCATAATCATGACAGTGAGGGTCAGCACACCTAATTCGAACTGTCGAGGTAATGTCTGCTGAGCATACATCGCATACATACTTAACACCTCCCTCGGCACCTCGGGTCGCAGTCTTCTTCCTGATTTGGCCCATTGCTAAAACTCATGGTCAGTACTAGCAACAGAGCTCCCCTTGGTAGCACGAAGTTAAAACTGCAAATCCTTAAAATTTT,14 ± 7%,28 ± 5%
GS1859: dsRNA trigger SEQ ID NO 207; gene target Citrate/oxoglutarate carrier protein (nucleic acid) AGGATCTTCTTTTGCTCTGCATTTCAACTCGAATAACCTCAATTGGTTGATTCCACGCACTCAACCCTCCCCCAAGGGCACTAGCGAGAATTCGTTCCCAAGCACTTAATGGACCGCCATTTTCTTTTCCTGAAACCTTTCGGATTCCCTGTTCTGCCAAACGACTTAATCCAAATCTGGATCCCCAATTCGTCATTTGTCGAATGGCAACAGCATTCACACCTTTATTAATACCTCTGATCCCATCTTTACGGTATATATCCATAAATGTTGAGAAAGTTCCTGGGGGCTTTACACCAGTGGATGCTAATTTGGATTTCGTAATCTCCACAGTTTTCATGCATGTACAAAAGCCCATAGTGGCATATGCTTGAGCCATACCCCCGACAACGCCTCCTGTGATGCCGGCTGTGAAGATGCCGGCTCCAAAACTTCGAGCATAGAATTCTGCTTCTGAAGCGACAAATAGAAGAACTGCACCTTTTGATGAAGCTTCAATCCAAGCCCATGGGATCAAGCCCTGATAAAAACCCAAAACA,26 ± 7%,32 ± 5%
GS1862: dsRNA trigger SEQ ID NO 149; gene target ATP-dependent RNA helicase dbp10 (nucleic acid) CTGCCTGGAATTTGACAACGCATGTAGGATTTCATTAAGTTGAGTGCTAAATCCCATTTCGAAAAGTCGATCTGCTTCATCAAATACCACATACTTGACCGAGGAAAGGTCTAATGACATTTCAATCTTAAGGTGTAAGAAGCGACCTGGCGTTGCAATAATAATATCAGGGTTGGCTGCCATAAATCTGAATTGATCTTCAAGACTATCTCCCCCTACAAGAAGAACGCATTTGAGATCAGTGCTCCGAGAAAATTCCTTAACGACTTTCAAAGTCTGCAAGGCAAGCTCTCGAGATGGGGATAGAATCAGAGCTCTAGCACCAACTCGAGCACTATGCGCCTTCAACATTTGAATCATCGGAATAACAAAAGCCGCTGTCTTTCCTGAACCGGTTCTAGCCATTCCCACGACATCTTGATGATCAAGAATCAGAGGTATTGTTTTTCTCTGGATTGGAGTCGGAACATTGAAGCCTTTTCTTTTGATGGCTCTCAAAAGATGAGCATCCAAACCCATAGATTGAAAA,29 ± 5%,26 ± 4%
